# Measured values: patent US20160367623A1, “AGONISTS OF GUANYLATE CYCLASE USEFUL FOR THE TREATMENT OF GASTROINTESTINAL DISORDERS, INFLAMMATION, CANCER AND OTHER DISORDERS” (priority 2015, published 2016)
# Bridge positions count the residues as written; N and C are the ends. Ends that are not written are not given here.
# Tested on: patients with chronic idiopathic constipation (CIC)
# Assay: Second phase 3 CIC trial: treatment emergent adverse events, safety
substance,measurement,setting,value
"Asn^1-Asp^2-Glu^3-Cys^4-Glu^5-Leu^6-Cys^7-Val^8-Asn^9-Val^10-Ala^11-Cys^12-Thr^13-Gly^14-Cys^15-Leu^16 (NDECELCVNVACTGCL; disulfide 4-12, 7-15) [Plecanatide]","Infections and infestations, Severe: patients N",3 mg,0
same,Infections and infestations: events E,3 mg,38
same,Infections and infestations: patients %,3 mg,(7.3) %
same,Infections and infestations: patients N,3 mg,34
same,"Influenza, Mild: events E",3 mg,2
same,"Influenza, Mild: patients %",3 mg,(0.4) %
same,"Influenza, Mild: patients N",3 mg,2
same,"Influenza, Moderate: events E",3 mg,0
same,"Influenza, Moderate: patients N",3 mg,0
same,"Influenza, Severe: events E",3 mg,0
same,"Influenza, Severe: patients N",3 mg,0
same,Influenza: events E,3 mg,2
same,Influenza: patients %,3 mg,(0.4) %
same,Influenza: patients N,3 mg,2
same,"Injury, poisoning and procedural complications, Mild: events E",3 mg,6
same,"Injury, poisoning and procedural complications, Mild: patients %",3 mg,(0.9) %
same,"Injury, poisoning and procedural complications, Mild: patients N",3 mg,4
same,"Ligament sprain, Mild: events E",3 mg,1
same,"Ligament sprain, Mild: patients %",3 mg,(0.2) %
same,"Ligament sprain, Mild: patients N",3 mg,1
same,"Ligament sprain, Moderate: events E",3 mg,1
same,"Ligament sprain, Moderate: patients %",3 mg,(0.2) %
same,"Ligament sprain, Moderate: patients N",3 mg,1
same,"Ligament sprain, Severe: events E",3 mg,0
same,"Ligament sprain, Severe: patients N",3 mg,0
same,Ligament sprain: events E,3 mg,2
same,Ligament sprain: patients %,3 mg,(0.4) %
same,Ligament sprain: patients N,3 mg,2
same,"Skeletal injury, Mild: events E",3 mg,0
same,"Skeletal injury, Mild: patients N",3 mg,0
same,"Skeletal injury, Moderate: events E",3 mg,0
same,"Skeletal injury, Moderate: patients N",3 mg,0
same,"Skeletal injury, Severe: events E",3 mg,0
same,"Skeletal injury, Severe: patients N",3 mg,0
same,Skeletal injury: events E,3 mg,0
same,Skeletal injury: patients N,3 mg,0
same,Ileus: events (E),3 mg (N = 467),0
same,Infections and infestations (SOC): events E,3 mg (N = 467),38
same,Infections and infestations (SOC): patients %,3 mg (N = 467),(7.3) %
same,Infections and infestations (SOC): patients N,3 mg (N = 467),34
same,"Influenza like illness, Mild: events (E)",3 mg (N = 467),0
same,"Influenza like illness, Moderate: events (E)",3 mg (N = 467),0
same,"Influenza like illness, Severe: events (E)",3 mg (N = 467),0
same,Influenza like illness: events (E),3 mg (N = 467),0
same,Influenza like illness: events E,3 mg (N = 467),0
same,Influenza like illness: patients N,3 mg (N = 467),0
same,Influenza: events E,3 mg (N = 467),2
same,Influenza: patients %,3 mg (N = 467),(0.4) %
same,Influenza: patients N,3 mg (N = 467),2
same,"Injury, poisoning and procedural complications (SOC): events E",3 mg (N = 467),10
same,"Nausea, Mild: events (E)",3 mg (N = 467),4
same,"Nausea, Mild: patients (%)",3 mg (N = 467),(0.9) %
same,"Nausea, Moderate: events (E)",3 mg (N = 467),0
same,"SAE Musculoskeletal and connective tissue disorders, E events",3 mg (N = 467),0
same,"SAE Musculoskeletal and connective tissue disorders, N patients",3 mg (N = 467),0
same,"SAE Musculoskeletal and connective tissue disorders, No Reasonable Possibility, E events",3 mg (N = 467),0
same,"SAE Musculoskeletal and connective tissue disorders, No Reasonable Possibility, N patients",3 mg (N = 467),0
same,"SAE Musculoskeletal and connective tissue disorders, Reasonable Possibility, E events",3 mg (N = 467),0
same,"SAE Musculoskeletal and connective tissue disorders, Reasonable Possibility, N patients",3 mg (N = 467),0
same,"Infections and infestations, Severe: patients N",6 mg,1
same,Infections and infestations: events E,6 mg,51
same,Infections and infestations: patients %,6 mg,(9.2) %
same,Infections and infestations: patients N,6 mg,43
same,"Influenza, Mild: events E",6 mg,4
same,"Influenza, Mild: patients %",6 mg,(0.9) %
same,"Influenza, Mild: patients N",6 mg,4
same,"Influenza, Moderate: events E",6 mg,3
same,"Influenza, Moderate: patients %",6 mg,(0.6) %
same,"Influenza, Moderate: patients N",6 mg,3
same,"Influenza, Severe: events E",6 mg,0
same,"Influenza, Severe: patients N",6 mg,0
same,Influenza: events E,6 mg,7
same,Influenza: patients %,6 mg,(1.5) %
same,Influenza: patients N,6 mg,7
same,"Injury, poisoning and procedural complications, Mild: events E",6 mg,4
same,"Injury, poisoning and procedural complications, Mild: patients %",6 mg,(0.9) %
same,"Injury, poisoning and procedural complications, Mild: patients N",6 mg,4
same,"Ligament sprain, Mild: events E",6 mg,0
same,"Ligament sprain, Mild: patients N",6 mg,0
same,"Ligament sprain, Moderate: events E",6 mg,0
same,"Ligament sprain, Moderate: patients N",6 mg,0
same,"Ligament sprain, Severe: events E",6 mg,0
same,"Ligament sprain, Severe: patients N",6 mg,0
same,Ligament sprain: events E,6 mg,0
same,Ligament sprain: patients N,6 mg,0
same,"Skeletal injury, Mild: events E",6 mg,0
same,"Skeletal injury, Mild: patients N",6 mg,0
same,"Skeletal injury, Moderate: events E",6 mg,0
same,"Skeletal injury, Moderate: patients N",6 mg,0
same,"Skeletal injury, Severe: events E",6 mg,1
same,"Skeletal injury, Severe: patients %",6 mg,(0.2) %
same,"Skeletal injury, Severe: patients N",6 mg,1
same,Skeletal injury: events E,6 mg,1
same,Skeletal injury: patients %,6 mg,(0.2) %
same,Skeletal injury: patients N,6 mg,1
same,Ileus: events (E),6 mg (N = 469),0
same,Infections and infestations (SOC): events E,6 mg (N = 469),51
same,Infections and infestations (SOC): patients %,6 mg (N = 469),(9.2) %
same,Infections and infestations (SOC): patients N,6 mg (N = 469),43
same,"Influenza like illness, Mild: events (E)",6 mg (N = 469),1
same,"Influenza like illness, Mild: patients (%)",6 mg (N = 469),(0.2) %
same,"Influenza like illness, Moderate: events (E)",6 mg (N = 469),0
same,"Influenza like illness, Severe: events (E)",6 mg (N = 469),0
same,Influenza like illness: events (E),6 mg (N = 469),1
same,Influenza like illness: events E,6 mg (N = 469),1
same,Influenza like illness: patients %,6 mg (N = 469),(0.2) %
same,Influenza like illness: patients (%),6 mg (N = 469),(0.2) %
same,Influenza like illness: patients N,6 mg (N = 469),1
same,Influenza: events E,6 mg (N = 469),7
same,Influenza: patients %,6 mg (N = 469),(1.5) %
same,Influenza: patients N,6 mg (N = 469),7
same,"Injury, poisoning and procedural complications (SOC): events E",6 mg (N = 469),9
same,"Nausea, Mild: events (E)",6 mg (N = 469),3
same,"Nausea, Mild: patients (%)",6 mg (N = 469),(0.6) %
same,"Nausea, Moderate: events (E)",6 mg (N = 469),2
same,"Nausea, Moderate: patients (%)",6 mg (N = 469),(0.4) %
same,"SAE Musculoskeletal and connective tissue disorders, E events",6 mg (N = 469),0
same,"SAE Musculoskeletal and connective tissue disorders, N patients",6 mg (N = 469),0
same,"SAE Musculoskeletal and connective tissue disorders, No Reasonable Possibility, E events",6 mg (N = 469),0
same,"SAE Musculoskeletal and connective tissue disorders, No Reasonable Possibility, N patients",6 mg (N = 469),0
same,"SAE Musculoskeletal and connective tissue disorders, Reasonable Possibility, E events",6 mg (N = 469),0
same,"SAE Musculoskeletal and connective tissue disorders, Reasonable Possibility, N patients",6 mg (N = 469),0
same,"Influenza, Mild: events E",Active Combined,6
same,"Influenza, Mild: patients %",Active Combined,(0.6) %
same,"Influenza, Mild: patients N",Active Combined,6
same,"Influenza, Moderate: events E",Active Combined,3
same,"Influenza, Moderate: patients %",Active Combined,(0.3) %
same,"Influenza, Moderate: patients N",Active Combined,3
same,"Influenza, Severe: events E",Active Combined,0
same,"Influenza, Severe: patients N",Active Combined,0
same,Influenza: events E,Active Combined,9
same,Influenza: patients %,Active Combined,(1.0) %
same,Influenza: patients N,Active Combined,9
same,"Skeletal injury, Mild: events E",Active Combined,0
same,"Skeletal injury, Mild: patients N",Active Combined,0
same,"Skeletal injury, Moderate: events E",Active Combined,0
same,"Skeletal injury, Moderate: patients N",Active Combined,0
same,"Skeletal injury, Severe: events E",Active Combined,1
same,"Skeletal injury, Severe: patients %",Active Combined,(0.1) %
same,"Skeletal injury, Severe: patients N",Active Combined,1
same,Skeletal injury: events E,Active Combined,1
same,Skeletal injury: patients %,Active Combined,(0.1) %
same,Skeletal injury: patients N,Active Combined,1
same,Infections and infestations (SOC): events E,Active Combined (N = 936),89
same,Infections and infestations (SOC): patients %,Active Combined (N = 936),(8.2) %
same,Infections and infestations (SOC): patients N,Active Combined (N = 936),77
same,"Influenza like illness, Mild: events (E)",Active Combined (N = 936),1
same,"Influenza like illness, Mild: patients (%)",Active Combined (N = 936),(0.1) %
same,"Influenza like illness, Moderate: events (E)",Active Combined (N = 936),0
same,"Influenza like illness, Severe: events (E)",Active Combined (N = 936),0
same,Influenza like illness: events (E),Active Combined (N = 936),1
